PMC3688876

Biological target: Apo2L/TRAIL-R1/DR4 (human (endogenous in MCF-7)) (UniProt O00220)
Chain of UniProt O00220 (O00220 24-468): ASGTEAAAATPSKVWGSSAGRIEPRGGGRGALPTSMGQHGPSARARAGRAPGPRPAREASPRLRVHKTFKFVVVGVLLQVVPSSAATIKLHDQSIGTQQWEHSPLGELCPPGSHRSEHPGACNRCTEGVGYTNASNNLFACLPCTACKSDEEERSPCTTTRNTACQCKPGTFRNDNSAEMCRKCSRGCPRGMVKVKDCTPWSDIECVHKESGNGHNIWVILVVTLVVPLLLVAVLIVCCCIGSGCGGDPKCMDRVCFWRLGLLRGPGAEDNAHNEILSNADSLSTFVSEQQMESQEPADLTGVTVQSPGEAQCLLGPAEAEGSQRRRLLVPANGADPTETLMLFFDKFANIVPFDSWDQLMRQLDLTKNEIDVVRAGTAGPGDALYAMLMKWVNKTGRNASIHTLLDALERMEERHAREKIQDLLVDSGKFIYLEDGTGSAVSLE

In the case of “Human recombinant Apo2L/TRAIL (from UniProt P50591 1-281) (ligand)”, the cellular apoptosis (viability by crystal violet, OD570) of MCF-7 PTHrP overexpressing cells pre-incubated with antagonistic anti-TRAIL-R1 antibody (10 µg/ml), then treated with 100 ng/ml Apo2L/TRAIL is reported as 50%.
